Reference: patent US20170129926A1 (ABCLON, published 2017)
Where two headings read alike, the source gives them in different places.

Columns and labels:
Assay in all cases: cell-based or functional assay
[1] = biological target: T1, cell surface IL-6 receptor (TF-1 cells) (human, UniProt P08887 20-468)
T1 sequence (looked up): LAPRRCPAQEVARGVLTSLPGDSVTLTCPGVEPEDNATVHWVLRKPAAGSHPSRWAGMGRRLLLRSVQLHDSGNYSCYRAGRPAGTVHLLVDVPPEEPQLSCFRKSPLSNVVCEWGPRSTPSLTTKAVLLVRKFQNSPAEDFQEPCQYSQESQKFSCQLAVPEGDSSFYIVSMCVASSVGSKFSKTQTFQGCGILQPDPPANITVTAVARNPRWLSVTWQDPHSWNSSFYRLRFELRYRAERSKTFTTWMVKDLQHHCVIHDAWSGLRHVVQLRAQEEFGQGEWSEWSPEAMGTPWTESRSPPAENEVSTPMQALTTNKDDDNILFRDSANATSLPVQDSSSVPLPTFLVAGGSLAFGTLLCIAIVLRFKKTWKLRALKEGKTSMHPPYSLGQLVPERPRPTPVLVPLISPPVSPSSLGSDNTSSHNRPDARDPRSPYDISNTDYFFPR

[2] = biological target: T1, cell surface IL-6 receptor (TF-1 cells); remark: listed apart in the source
[3] = biological target: T2, human IL-6Rα (human, UniProt P08887 20-358)
T2 sequence (looked up): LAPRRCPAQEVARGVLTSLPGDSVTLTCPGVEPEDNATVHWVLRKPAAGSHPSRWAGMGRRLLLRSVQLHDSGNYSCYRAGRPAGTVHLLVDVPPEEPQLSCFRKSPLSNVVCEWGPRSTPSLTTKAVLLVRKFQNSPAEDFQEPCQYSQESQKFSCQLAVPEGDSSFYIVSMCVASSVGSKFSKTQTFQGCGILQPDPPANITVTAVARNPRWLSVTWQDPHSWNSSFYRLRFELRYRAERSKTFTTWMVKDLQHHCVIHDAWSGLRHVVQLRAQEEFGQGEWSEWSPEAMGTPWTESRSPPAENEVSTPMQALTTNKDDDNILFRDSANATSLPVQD

- IC50, IL-6 dependent growth of TF-1 cells [1]: 300 pM
- IC50, IL-6 dependent growth of TF-1 cells [2]: 410 pM
- IC50, IL-6 trans-signaling (MCP-1 secretion by HUVECs) [3]: ~5000 pM
B1: tocilizumab (antibody, V domains shown)
VH: QVQLQESGPGLVRPSQTLSLTCTVSGYSITSDHAWSWVRQPPGRGLEWIGYISYSGITTYNPSLKSRVTMLRDTSKNQFSLRLSSVTAADTAVYYCARSLARTTAMDYWGQGSLVTVSS
VL: DIQMTQSPSSLSASVGDRVTITCRASQDISSYLNWYQQKPGKAPKLLIYYTSRLHSGVPSRFSGSGSGTDFTFTISSLQPEDIATYYCQQGNTLPYTFGQGTKVEIKR
